Common to all, as to assay: peptide microarray
In one assay the target is T1, Peptide_051.
T1 sequence (peptide): RTPPKSPSSAKSRLQ

In another assay the target is T2, Peptide_059.
T2 sequence (peptide): STENLKHQPGGGKVQ

The target in the next assay is T3, Peptide_060.
T3 sequence (peptide): LKHQPGGGKVQIINK

For a further assay, the target named is T4, Peptide_061.
T4 sequence (peptide): PGGGKVQIINKKLDL

Values joined by “and” are separate entries in the source; they are usually repeats but may differ in a detail not shown here. Identical values can stand only once.

B1: mAb TRC35 (antibody, V domains shown)
VH: QVQLQQPGTELVKPGASVKLSCKASGYTFTSYWLQWVKQRPGQGLEWIGEIDPSDSYTNYNQKFKGKATLTVDTSSSTAYMQLSSLTSEDSAVYYCATLTGSWGQGTTLAVSS
VL: DVLLTQTPLSLPVSLGDQASISCRASQSIVDSNGNTFLEWYLQKSGQSPKVLIYKVSNRFSGVPDRFSGRGSGTDFTLKISRVEAEDLGVYYCFQGSHVPYTFGGGTKLEIK
In the case of B1, the fluorescence intensity in the assay with Peptide_051 was 151 and 83.3; with Peptide_059, 204 and 126; in the assay with Peptide_060 it was 793 and 655; in the assay with Peptide_061, 157 and 114.
